# Experimental data published in patent US20090324700A1, “METHODS AND COMPOSITIONS FOR THE INHIBITION OF CATHEPSINS” (priority 2003, published 2009).
# What was measured:
# [1] = test system: NIH3T3 cells; test: TNF-α death assays, NIH3T3 cells; type: cell-based; conditions: TNF-α + Z-VAD.fmk 50 μM; FIG. 9B, 10B
# Procedure: TNF-α death assays. NIH3T3 cells were transduced with MIGR1 retrovirus (Zhang and Ren, 1998) encoding either GFP alone, or Spi2A in the forward (sense) or reverse (antisense) orientation and stable clones generated, as described previously (Liu et al., 2003). Cells were treated with TNF-α (R&D) and after 16 h the number of live GFP-positive adherent cells were counted by flow cytometry (Liu et al., 2003). Live cells were defined as those that excluded propidium iodide (PI-negative) and had the appropriate size, as defined by forward and side light scatter characteristics. Caspase activity was inhibited by pre-treatment of cells or extracts for 1 h with Z-VAD.fmk (ICN Biomedicals Inc; 50 μM). […] In anti-sense experiments the level of Spi2A mRNA was quantitated by real-time PCR using primers and probes specific for Spi2A (Inglis et al., 1991) and cyclofilin A control mRNA (Medhurst et al., 2000), 4 h after treatment with Z-VAD.fmk ([…]) and TNF-α (10 ng/ml), as described previously (Liu et al., 2003).
# [2] = target: T1, cathepsin B (Mus musculus, UniProt P10605); test: Cathepsin B activity in crude cytoplasmic extracts, RelA^−/− MEFs; type: cell-based; conditions: TNF-α 0.2 ng/ml, CHX 0.1 μg/ml; FIG. 1C, 7A
# T1 construct: endogenous in cells; host or cells: RelA-/- or RelA+/+ MEFs (retrovirally transduced with GFP, RelA, Spi2A or antisense Spi2A)
# Procedure: Survival Assays. Although RelA^−/− MEFs are markedly more sensitive to TNF-α compared to RelA^+/+ MEFs, low levels of CHX (0.1 μg/ml) were used in the survival assays. This was to suppress any protective activity of constitutively active non-RelA NF-κB molecules that are present in RelA^−/− MEFs (FIG. 4). Thus, RelA^−/− MEFs were treated with CHX and TNF-α (R&D) and the number of live GFP-positive adherent cells was counted by flow cytometry after 16 h, if not indicated otherwise. Live cells were defined as those that excluded propidium iodide (PI-negative) and had the appropriate size, as defined by forward and side scatter characteristics (Coligan et al., 1995). For RelA^+/+ MEFs, TNF-α-cytotoxicity was determined after 16 h with CHX (10 μg/ml), if not indicated otherwise. Cathepsin B activity was inhibited by a 1 h pre-treatment of MEFs with CA-074 Me (30 μM) (Peptide Institute). […] RelA^−/− MEFs were treated with (10-50 μM) sphingosine (Calbiochem) and the number of live GFP-positive adherent cells was counted by flow cytometry after 2 h.
# Death effector assays. Death effector pathways were induced in […] MEFs by treatment TNF-α (0.2 ng/ml) and CHX (0.1 μg/ml). […] Protein concentration was determined by Lowry assay (DC-protein assay kit, Biorad). […]
# Colorimetric assays for capases were performed in reaction buffer (50 mM HEPES, pH 7.4, 100 mM NaCl, 10 mM DTT, 1 mM EDTA, 10% glycerol, 0.1% CHAPS) at 37° C. on crude cytoplasmic extracts using p-Nitoaniline (pNA)-labeled substrates (Calbiochem) specific for caspases 3 and 7 (Ac-DEVD-pNA), caspase 8 (Ac-IETD-pNA), caspase 9 (Ac-LEHD-pNA), each at 0.2 mM. Specific activity was determined by subtracting the apparent activity detected after 1 h pre-incubation of extract with the pan-caspase inhibitor Z-VAD.fmk at 50 μM (ICN Biomedicals Inc), then normalizing for the amount of protein. […] Specific activity was determined by subtracting the apparent activity detected after 30 min pre-incubation of extract at 37° C. with the cathespin B inhibitor CA-074 Me at 30 μM (Peptide Institute) then normalizing for the amount of protein.
# T1 sequence (P10605 80-333): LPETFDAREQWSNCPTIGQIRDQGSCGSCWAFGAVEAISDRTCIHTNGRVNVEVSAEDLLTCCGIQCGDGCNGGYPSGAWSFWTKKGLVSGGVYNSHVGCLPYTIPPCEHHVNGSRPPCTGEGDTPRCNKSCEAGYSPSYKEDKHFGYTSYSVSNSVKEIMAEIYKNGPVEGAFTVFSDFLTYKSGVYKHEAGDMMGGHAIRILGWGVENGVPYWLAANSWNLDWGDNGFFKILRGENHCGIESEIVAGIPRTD
molecule,measurement,setting,value
"Spi2A: murine Spi2A polypeptide, SEQ ID NO:2; purified as C-terminal 3×FLAG protein or expressed from MIGR1 retrovirus in cells and bone-marrow chimeras (protein, listed as Mus musculus, C-terminal 3xFLAG tag, purified as C-terminal 3×FLAG protein or expressed from MIGR1 retrovirus in cells and bone-marrow chimeras) MAGVSPAVFGCPDVTLGRNTAVREVQENVTSVDSLTLVSSNTDFAFSLYRKLVLKNPDENVVFSPFSICTALALLSLGAKSNTLKEILEGLKFNLTETPEPDIHQGFRYLLDLLSQPGNQVQISTGSALFIEKHLQILAEFKEKARALYQAEAFTADFQQPLKATKLINDYVSNHTQGKIKELISGLKESTLMVLVNYIYFKGKWKNPFDPNDTFKSEFYLDEKRSVIVSMMKTGYLTTPYFRDEELSCTVVELKYTGNASAMFILPDQGRMQQVEASLQPETLRKWKNSLKPRMIHELRLPKFSISTDYSLEHILPELGIREVFSTHADLSAITGTKDLRVSQVVHKAVLDVAEKGTEAAAATGMAGVGCCAVFDFLEIFFNRPFLMIISDTKAHIALFMAKVTNPERSTNFPNGEGASSQRLESKRLCFGDPLCLIGQ","Survival against TNF-α in the absence of caspase activity, transduced clones vs GFP",[1],markedly improved survival
same,"Cytosolic cathepsin B activity after TNF-α, retrovirally transduced cells",[2],inhibited the induction
